The Km is the substrate concentration at which the rate is half of its maximum. As a reminder, the kcat is the maximal rate divided by the concentration of active sites. The term stoichiometry N denotes a count of units in the complex or per binding partner.

Substrate in data set [1]: Cc1cn([C@H]2C[C@H](O)[C@@H](COP(=O)(O)OP(=O)(O)O[C@H]3O[C@H](CO)[C@@H](O)[C@H](O)[C@H]3O)O2)c(=O)[nH]c1=O
Nature of the data set: anion-exchange HPLC of substrate consumption, Michaelis-Menten fit. The data set is classed as biochemical, Trichomonas vaginalis. Conditions: 50 mM Tris/HCl, 150 mM NaCl, pH 7.0, 25 °C, no added NAD(P)+ or bivalent cations needed.

Substrate in data set [2]: O=c1ccn([C@@H]2O[C@H](CO[P@@](=O)(O)O[P@@](=O)(O)O[C@H]3O[C@H](CO)[C@@H](O)[C@H](O)[C@H]3O)[C@@H](O)[C@H]2O)c(=O)[nH]1
Described as above. The data set is classed as biochemical, Trichomonas vaginalis. As to conditions: 50 mM Tris/HCl, 150 mM NaCl, pH 7.0, 25 °C, no added NAD(P)+ or bivalent cations needed.

Data set [3] concerns the molecule itself. As to the kind of experiment: SEC; size-exclusion chromatography of the purified protein on a TSK-gel 3000 column, as described in ref. 23; molecular weight calculated from the elution time.

B1: UDP-D-glucose 4,6-dehydratase from Trichomonas vaginalis (TvUGD, TVAG_414560) (enzyme, Trichomonas vaginalis (strain G3), UniProt A2GEF2 1-348, looked up)
chain: MSEDYQPHVILLTGGAGFIGSHVCNHLVLKYPDVKIICLDVMDYCANLRNLEEIMNKPNFLFIKGSINNVELVSYIMKTHAVDTVMHFAAQSHVDRSFGNSLEFTHTNILGTHVLLECAKQNNIKRFIHVSTDEVYGEVLSGCAEEEKSILCPTNPYACSKAGAEFMCQAYIRSFNMPIIITRGNNVFGPKQFPEKVIPKFTLLLKAGHKCCIHGDGSALRNFLHTSDVVQAFDTILHKGKLHQIYNIGTDFEISVLEMTKKLIKVLNMPGKPEDWIEFVPDRAFNDSRYMINSSKLIALGWHANTDFDTLLKETVQWYLDHMDYWKDRDINTYLSPHPIAYAPKTAE
notes: calculated monomer mass 39 kDa; Residues of the vector may remain after protease cleavage; also called TvGD; UDP-D-Glc 4,6-dehydratase; source: E. coli BL21, GST-fusion from pGEX-6P1, purified on GSH-sepharose 4B, GST removed by precision protease cleavage
Take B1: the Km is on record as 362.8 ± 73.4 µM in data set [1] and 21.3 ± 3.4 µM in data set [2]. In addition, the kcat in data set [1] stood at 0.36 ± 0.03 s⁻¹; in data set [2] it was 0.39 ± 0.01 s⁻¹. Moreover, in data set [3], the “stoichiometry N” value is 2.

Source of the values: article PMC9741107, “The L-Rhamnose Biosynthetic Pathway in Trichomonas vaginalis: Identification and Characterization of UDP-D-Glucose 4,6-dehydratase” (International Journal of Molecular Sciences, 2022).
